Data on 2 substances can be found in PMC9943673.

Assay [1] has as its target TIN2 (UniProt Q9BSI4). In words: biotin-peptide pull-down from nuclear extract, MS. The settings on record: reference: unphosphorylated peptide (TRF2-CTRL); sites S410.
Assay [2] addresses TRF2-pS410 peptide labelled at the N-terminus with carboxyfluorescein (FAM) (human). In words: fluorescence polarisation; fluorescence anisotropy; 3 nM FAM-peptide titrated with TIN2 to 500 nM; 50 mM NaCl, 50 mM phosphate buffer pH 7.0, 25 C.
Assay [3] deals with TRF2-CTRL peptide labelled at the N-terminus with carboxyfluorescein (FAM) (human). The assay is described as above.
Sequence of TRF2-CTRL peptide labelled at the N-terminus with carboxyfluorescein (FAM) (human) (Q15554 401-420): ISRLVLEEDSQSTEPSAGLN

Turning to “TRF2 (from UniProt Q15554) pS410 peptide”, the “binding against the reference” value in assay [1] is “stronger”.
The term Kd denotes the concentration at which binding is half-saturated. Higher therefore signals weaker binding. For “purified human TIN2 (from UniProt Q9BSI4 1-451) (natural protein)”, the Kd in assay [2] was 180 nM; in assay [3] it was 240 nM.
